The values below come from the RNAGym collection of RNA variant scans (doi:10.7554/elife.80360).

B1: Twister Ribozyme (parent)
chain: AACACUGCCAAUGCCGGUCCCAAGCCCGGAUAAAAGUGGAGGGGGCGG

In this data set the parent is B1. As to the kind of experiment: self-cleavage, relative activity (ratio to wild type); higher = more cleavage; co-transcriptional.
Regarding AACACUGCCACUGCCGGUCCCAAGCCCGGAUAAAAGUGGAGGGGGCGU [A11C G48U], the self-cleavage is 1.06.
For AACACUGCCACUGCCGGUCCCAAGCCCGGAGAAAAGUGGAGGGGGCGG [A11C U31G], the self-cleavage was 0.917.
The result for AACGCUGCCAAUGCCGGUCCCAAGCCCGGAUAUAAGUGGAGGGGGCGG [A4G A33U] reads 0.858; that for AACACUGCCAAUGCCGGUCCCAAGCCCGGAUAAAAGUGGCGAGGGCGG [A40C G42A], 0.152; that for AACACUGCCAAUGCCGGUGCCAAGCCCGGAUAAAAGUGGAGGGGGCGA [C19G G48A], 0.167.
On to AACACUGCCGAUGCCGGUCCCAAGCCCGGAUAAAAGUGGAGGGGGCGU [A10G G48U], for which the self-cleavage was determined as 1.15.
Consider AACACUGCCAAUCCCGGUCCCAAGCCCGGAUAAAAGUGAAGGGGGCGG [G13C G39A], for which the self-cleavage turned out to be 0.118.
For AAAACUGCCAAUGCCGGUCCCAAGCCGGGAUAAAAGUGGAGGGGGCGG [C3A C27G], the self-cleavage was 0.0917.
Take AACACUGGCAAUGCCGGUCCCAAGCCCGGAUAAAAGUGGAGAGGGCGG [C8G G42A]: the self-cleavage stood at 0.131.
The result for ACCACUGCCAAUGCCGGUCCCAAUCCCGGAUAAAAGUGGAGGGGGCGG [A2C G24U] reads 0.0478.
For AACACUGCCAAUGCCGGUCCCAAGCCCGGAUAAACGUGGAGGGGGCAG [A35C G47A], the self-cleavage was 0.832.
On to AACACUGCCAAUGCGGGUCCCAAGCCGGGAUAAAAGUGGAGGGGGCGG [C15G C27G], for which the self-cleavage was 0.0738.
The result for AACACUGCCAAUGCGGGUCCCAAGCCUGGAUAAAAGUGGAGGGGGCGG [C15G C27U] reads 0.094.
Consider AACACUGCCAAUGCCGGUCCCAAGCCAGGAUAAAAGUGCAGGGGGCGG [C27A G39C], for which the self-cleavage is 0.0948.
For the variant AACACUGCCAAUGCCGGUCCCAUGCUCGGAUAAAAGUGGAGGGGGCGG [A23U C26U], the self-cleavage is 0.153.
Next, AACACUGCCAAUGCCGGUCCCAUGCACGGAUAAAAGUGGAGGGGGCGG [A23U C26A]: 0.234.
In the case of AACACUGCCAAUGCUGGUCCCAAGCCCGGAUAAAAGUGGAGGGGGCGU [C15U G48U], the self-cleavage came to 0.987.
AACACUGCCAAUGCCGGUCCCAAGCCAGUAUAAAAGUGGAGGGGGCGG [C27A G29U]: the self-cleavage was determined as 0.132.
With AACACUGCCAAUGCCGUUCCCAAGCCCGGGUAAAAGUGGAGGGGGCGG [G17U A30G], the self-cleavage amounted to 0.265.
The result for AACACAGCCAAUGCCGGUCCCAAGCCCGGAUAAAAGUGCAGGGGGCGG [U6A G39C] reads 0.183.
As to AACACUGCCAAUGCCGGUCCCAUGCCCGGAUAAAAGUGGAGGGGGCGA [A23U G48A], the self-cleavage came out at 0.389.
In the case of AACACGGCCAAUGCCGGUCCCAAGCCCGGAUAACAGUGGAGGGGGCGG [U6G A34C], the self-cleavage was found to be 0.539.
The result for AACACUGCCAAUGCCGGUCUCAAGCCCGGAUAAAAGUGUAGGGGGCGG [C20U G39U] reads 0.15; that for AACACCGCCAAUGCCGGUCCCAAGCCCGGAUAAAAGUGGAGGGAGCGG [U6C G44A], 0.63; that for AACACUGCCAAUGCCGGUCCCAAGCCCGGAUAAAAGUGGUGAGGGCGG [A40U G42A], 0.136.
For the variant UUCACUGCCAAUGCCGGUCCCAAGCCCGGAUAAAAGUGGAGGGGGCGG [A1U A2U], the self-cleavage is 0.0794.
In the case of AACGCUGCAAAUGCCGGUCCCAAGCCCGGAUAAAAGUGGAGGGGGCGG [A4G C9A], the self-cleavage came out at 0.698.
Turning to AACACUGCCAAUGACGGUCCCAAGCCCGGUUAAAAGUGGAGGGGGCGG [C14A A30U], the self-cleavage is 0.968.
Consider AACCCUGCCAAUGCCAGUCCCAAGCCCGGAUAAAAGUGGAGGGGGCGG [A4C G16A], for which the self-cleavage was found to be 0.0955.
As to AACACUGCCCAUGCCGGUCCCAAGCCCGGAUAAAAGCGGAGGGGGCGG [A10C U37C], the self-cleavage came to 0.767.
Regarding AACACUGCAAAUGCCGGUCCCAAUCCCGGAUAAAAGUGGAGGGGGCGG [C9A G24U], the self-cleavage is 0.111.
For AACUCUGCCAAUACCGGUCCCAAGCCCGGAUAAAAGUGGAGGGGGCGG [A4U G13A], the self-cleavage came out at 0.0571.
The result for AACACUGGCAAUGCCGGUCCCAAGCACGGAUAAAAGUGGAGGGGGCGG [C8G C26A] reads 0.0716.
As for AACUCUGACAAUGCCGGUCCCAAGCCCGGAUAAAAGUGGAGGGGGCGG [A4U C8A], the self-cleavage stood at 0.0382.
The result for AACACUGCCUAUGCCGGUCCCAAGCCCGGAUAAAAGUGGAGGGGGCUG [A10U G47U] reads 1.01.
Turning to AACACUGCCAAUGCCGGUCCGAAGCCCGGAGAAAAGUGGAGGGGGCGG [C21G U31G], the self-cleavage amounted to 0.0712.
For AACACUCCCAAUGCCGGUCCCAAGCCCGGAUAAAAGUAGAGGGGGCGG [G7C G38A], the self-cleavage is 0.0835.
In the case of AACACUGCCAAUGCCGGUCCCAAGCCCGGACAAAAGUGGAGGGUGCGG [U31C G44U], the self-cleavage was 1.01.
AACCCUGCCAAUGCCGGUCCCAAGCCAGGAUAAAAGUGGAGGGGGCGG [A4C C27A]: the self-cleavage was found to be 0.0944.
The result for AACACUGCCAAUGCCGGUCCCAAGCCCGGAUAAAGGUGGAGGGUGCGG [A35G G44U] reads 0.831; that for AACACUGCCAAAGCCGGUCCCAAGCGCGGAUAAAAGUGGAGGGGGCGG [U12A C26G], 0.446; that for AACACUGCCAAUGCCGGACCCAAGCUCGGAUAAAAGUGGAGGGGGCGG [U18A C26U], 0.158.
On to GACACUGCCAAUGCCGGUCCCAAGCCCGGAUAAAGGUGGAGGGGGCGG [A1G A35G], for which the self-cleavage was 0.326.
Next, GACACUGCCAAUGCCGGUCCCAAGCCCGGAUAAAUGUGGAGGGGGCGG [A1G A35U]: 0.447.
Take AACACUGCCAAUGCCUGUCCCAAGCCCGGAUAAAAGCGGAGGGGGCGG [G16U U37C]: the self-cleavage came out at 0.261.
The result for AUCACUGCCAAUGCCGGUCCCAAGCCCGGAUAGAAGUGGAGGGGGCGG [A2U A33G] reads 0.503.
In the case of AACACUGCCAAUGCCGGUCCCAAGCCCGAACAAAAGUGGAGGGGGCGG [G29A U31C], the self-cleavage is 0.986.
With AACACUGCCAACGCCGGUCCCAAGCCCGGAUACAAGUGGAGGGGGCGG [U12C A33C], the self-cleavage stood at 0.876.
For AACACUGACAAUGCCGGUCCCAAGCCCGGAUCAAAGUGGAGGGGGCGG [C8A A32C], the self-cleavage turned out to be 0.42.
Take AACACUGCCAAUGCCGGUCCCAAGCCCGGAUAAAACUGGAGUGGGCGG [G36C G42U]: the self-cleavage was 0.145.
As to AAAACUGCCAAUGCCGGUCCCAAACCCGGAUAAAAGUGGAGGGGGCGG [C3A G24A], the self-cleavage amounted to 0.0635.
For AACACUGCCAAUGCCGGUCCCAAGCCCGGAUAAACGUUGAGGGGGCGG [A35C G38U], the self-cleavage is 0.881.
As to AACACUGCCAAUGCCCGUCCCGAGCCCGGAUAAAAGUGGAGGGGGCGG [G16C A22G], the self-cleavage turned out to be 0.0711.
Next, AACACUCCCAAUGCCGGUCCCAAGCGCGGAUAAAAGUGGAGGGGGCGG [G7C C26G]: 0.0717.
